The source of these data is PMC8874921, “Evolved DNA Duplex Readers for Strand-Asymmetrically Modified 5-Hydroxymethylcytosine/5-Methylcytosine CpG Dyads”.

This series addresses wt MeCP2 MBD (Homo sapiens, UniProt P51608 90-181). The experiment in a line: EMSA; EMSA; unlabeled oligo-dA/dT duplex (o2968/o2969) listed as binding trap; buffer, salt, pH and temperature not shown in the material. Conditions: protein: recombinant, tags: N-terminal FLAG-MBP-FactorXa-TEV, C-terminal 7xHis, label: 6-FAM 5' strand 1.

In general, Kd refers to the constant that tells how readily two partners part at equilibrium.

wt MeCP2 MBD, sequence (P51608 90-181): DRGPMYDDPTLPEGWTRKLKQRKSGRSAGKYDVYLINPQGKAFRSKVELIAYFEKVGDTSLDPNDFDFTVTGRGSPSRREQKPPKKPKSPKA

B1: hmC/hmC oligo-dA/dT (EMSA) (dsDNA)
DNA 1: AAAAAAAAAAACGAAAAAAAAAAA
DNA 2: TTTTTTTTTTTCGTTTTTTTTTTT
modifications: 5hmC at C12 of strand 1 (o3115); 5hmC at C12 of strand 2 (o3112)
For the molecule B1, the Kd was found to be 198 ± 39.1 nM.

B2: hmC/C oligo-dA/dT (EMSA) (dsDNA)
DNA 1: AAAAAAAAAAACGAAAAAAAAAAA
DNA 2: TTTTTTTTTTTCGTTTTTTTTTTT
modifications: 5hmC at C12 of strand 1 (o3115); strand 2 unmodified (o2904)
With B2, the Kd (blunt) is 211 ± 19.5 nM.

B3: hmC/mC oligo-dA/dT (EMSA) (dsDNA)
DNA 1: AAAAAAAAAAACGAAAAAAAAAAA
DNA 2: TTTTTTTTTTTCGTTTTTTTTTTT
modifications: 5hmC at C12 of strand 1 (o3115); 5mC at C12 of strand 2 (o2909)
Turning to B3, the Kd (blunt) came out at 47.4 ± 12.4 nM.

B4: C/mC oligo-dA/dT (EMSA) (dsDNA)
DNA 1: AAAAAAAAAAACGAAAAAAAAAAA
DNA 2: TTTTTTTTTTTCGTTTTTTTTTTT
modifications: 5mC at C12 of strand 1 (o2967); strand 2 unmodified (o2904)
With B4, the Kd (blunt) is 43.8 ± 3.64 nM.

B5: mC/mC oligo-dA/dT (EMSA) (dsDNA)
DNA 1: AAAAAAAAAAACGAAAAAAAAAAA
DNA 2: TTTTTTTTTTTCGTTTTTTTTTTT
modifications: 5mC at C12 of strand 1 (o2967); 5mC at C12 of strand 2 (o2909)
Consider B5, for which, under “blunt”, the Kd was found to be 3.9 ± 0.636 nM.
